The values below come from US20100081611A1.

For the test, the target named is pre-assembled ICN-CSL complex (UniProt P46531). The test is described as follows: surface plasmon resonance, peptide immobilized, pre-assembled ICN-CSL complex. (In general: In SPR one partner is held on a chip, and binding of the other changes the refractive index at the surface.)
Sequence of pre-assembled ICN-CSL complex (P46531 1760-2126, chain 1 of 2): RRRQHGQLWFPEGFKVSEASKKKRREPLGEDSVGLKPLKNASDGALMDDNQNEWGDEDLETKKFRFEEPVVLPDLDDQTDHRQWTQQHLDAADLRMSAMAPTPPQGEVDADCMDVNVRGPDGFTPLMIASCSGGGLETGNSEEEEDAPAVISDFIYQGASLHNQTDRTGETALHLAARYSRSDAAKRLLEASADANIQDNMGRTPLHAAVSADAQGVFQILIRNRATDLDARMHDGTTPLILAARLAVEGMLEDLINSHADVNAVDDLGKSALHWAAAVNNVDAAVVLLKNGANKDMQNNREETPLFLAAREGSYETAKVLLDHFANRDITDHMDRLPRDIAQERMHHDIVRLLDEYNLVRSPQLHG
Sequence of pre-assembled ICN-CSL complex (Q06330 23-449, chain 2 of 2, further chain): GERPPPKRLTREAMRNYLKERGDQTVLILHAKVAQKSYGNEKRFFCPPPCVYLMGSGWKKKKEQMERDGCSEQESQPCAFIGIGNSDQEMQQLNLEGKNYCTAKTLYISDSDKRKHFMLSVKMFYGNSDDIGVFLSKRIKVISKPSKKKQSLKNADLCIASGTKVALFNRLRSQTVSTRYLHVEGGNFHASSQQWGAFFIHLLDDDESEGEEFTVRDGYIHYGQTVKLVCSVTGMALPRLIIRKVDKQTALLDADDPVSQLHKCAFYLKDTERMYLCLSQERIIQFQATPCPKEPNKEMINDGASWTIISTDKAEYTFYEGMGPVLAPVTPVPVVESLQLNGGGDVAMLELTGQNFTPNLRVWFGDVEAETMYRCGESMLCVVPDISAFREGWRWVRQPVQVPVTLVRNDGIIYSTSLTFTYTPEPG

A word on the Kd: it is a measure of binding affinity in units of concentration. Read a low Kd as tighter binding. As to “SAHN1 (REM-G1), internally cross-linked (stapled) MAML-1 polypeptide”, the Kd is 98 nM.
